Sequences and labels used below:
B1: human RAD54B N-terminal fragment, amino acid residues 26-225 (RAD54B_(26–225)) (domain or fragment, UniProt Q9Y620 26-225, looked up)
chain: SNPGLNEEITKLNPDIKLFEGVAINNTFLPSQNDLRICSLNLPSEESTREINNRDNCSGKYCFEAPTLATLDPPHTVHSAPKEVAVSKEQEEKSDSLVKYFSVVWCKPSKKKHKKWEGDAVLIVKGKSFILKNLEGKDIGRGIGYKFKELEKIEEGQTLMICGKEIEVMGVISPDDFSSGRCFQLGGGSTAISHSSQVAR

Data set [1] has as its target T1, RAD54B26-225 (Homo sapiens, UniProt Q9Y620 26-225).
T1 sequence: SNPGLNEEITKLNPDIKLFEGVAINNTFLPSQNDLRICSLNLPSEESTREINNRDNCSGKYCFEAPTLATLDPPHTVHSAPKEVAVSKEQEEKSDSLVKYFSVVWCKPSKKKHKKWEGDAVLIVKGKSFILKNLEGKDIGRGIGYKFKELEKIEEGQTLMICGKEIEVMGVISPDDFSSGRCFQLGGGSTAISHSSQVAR
Description: EMSA. In general terms: In EMSA bound probe runs differently from free probe, usually more slowly.

For data set [2], the target named is B1. Description: pull-down.
The data set “SEC” deals with the molecule itself. As to the kind of experiment: SEC. (In general: Size exclusion chromatography separates by hydrodynamic size, large species first.)
Another data set addresses T2, DMC1 (UniProt Q14565 1-340).
T2 sequence (looked up): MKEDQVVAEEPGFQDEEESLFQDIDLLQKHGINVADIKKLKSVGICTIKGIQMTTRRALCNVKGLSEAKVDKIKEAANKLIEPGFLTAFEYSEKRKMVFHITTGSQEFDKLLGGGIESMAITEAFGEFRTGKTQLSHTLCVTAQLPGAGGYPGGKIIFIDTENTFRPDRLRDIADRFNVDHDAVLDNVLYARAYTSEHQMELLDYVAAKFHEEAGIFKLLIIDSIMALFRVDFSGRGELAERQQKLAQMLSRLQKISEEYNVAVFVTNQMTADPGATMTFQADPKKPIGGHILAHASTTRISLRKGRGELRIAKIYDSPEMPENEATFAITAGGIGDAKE
Description: pull-down.

Data set [3] has as its target T1, RAD54B26-225. As to the kind of experiment: EMSA. This is another data set of the same source.
Data set [4] addresses T1, RAD54B26-225. As to the kind of experiment: EMSA. The source holds these as a separate data set.
The target in data set [5] is T1, RAD54B26-225. As to the kind of experiment: EMSA. This is another data set of the same source.

Where two headings read alike, the source gives them in different places.

AAAAAAAAAAAAAAAAAAAAAAAAAAAAAAAAAAAAAAAAAAAA (ssDNA) [polyA 44-mer]: the binding result with RAD54B26-225 [1] was “binds”. For the molecule ASTTRISLRKGRGELRIAKIYDSPEMPENEATFAITAGGIGDAKE (domain or fragment, UniProt Q14565 296-340, looked up) [GST-fused DMC1 deletion mutant, amino acid residues 296-340 (fragment X)], the binding result in data set [2] is listed as “binds”.

Take B1: the “stoichiometry N” value in “SEC” was determined as 2. Also, in the data set with DMC1, the binding result is given as “binds”.

B2: dsDNA (oligos 2/2a) (dsDNA)
DNA 1: TGGGTCAACGTGGGCAAAGATGTCCTAGCAATGTAATCGTCTATGACGTT
DNA 2: AACGTCATAGACGATTACATTGCTAGGACATCTTTGCCCACGTTGACCCA
B2: in the data set with RAD54B26-225 [3], the binding result is given as “binds”.

B3: 3'-PX junction (oligos 2/6/7/10) (structured_DNA)
DNA 1: TGGGTCAACGTGGGCAAAGATGTCCTAGCAATGTAATCGTCTATGACGTT
DNA 2: GTCGGATCCTCTAGACAGCTCCATGATCACTGGCACTGGTAGAATTCGGC
DNA 3: CAACGTCATAGACGATTACATTGCTACATGGAGCTGTCTAGAGGATCCGA
DNA 4: GGACATCTTTGCCCACGTTGACCC
Regarding B3, the binding result with RAD54B26-225 [4] is “binds”.

B4: 5'-flapped DNA (oligos 2/8/15) (structured_DNA)
DNA 1: TGGGTCAACGTGGGCAAAGATGTCCTAGCAATGTAATCGTCTATGACGTT
DNA 2: CAACGTCATAGACGATTACATTGCTAATCACTGGCACTGGTAGAATTCGGC
DNA 3: TGCCGAATTCTACCAGTGCCAGTGAT
On to B4, for which the binding result with RAD54B26-225 [5] is given as “binds”.

B5: GST-fused DMC1 deletion mutant, amino acid residues 153-214 (fragment VI) (domain or fragment, UniProt Q14565 153-214, looked up)
chain: GGKIIFIDTENTFRPDRLRDIADRFNVDHDAVLDNVLYARAYTSEHQMELLDYVAAKFHEEA
Take B5: in data set [2], the binding result was “binds”.

One may read the stoichiometry N as a count of units in the complex or per binding partner.

The values are drawn from article PMC2553597 (Nucleic Acids Research, 2008).
